Laboratory results as given in the supplement of paper PMC9732359.
± gives the uncertainty stated by the source.

Experiment: protein stability index of a GFP-peptide fusion (yeast GPS) (PSI 1-4); higher = more stable; sorted into four equal gates, so the index is relative within each strain
How it was run: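 Peptides tiling yeast proteins in 17-residue segments were fused downstream of GFP, with Cherry expressed from the same plasmid. As a pooled library in yeast, mid-log cultures grown in leucine-free medium were sorted into four equal gates by GFP/Cherry fluorescence ratio. Gate plasmids were PCR-amplified and Illumina-sequenced, and barcodes linked reads to strains. Each peptide received a protein stability index equal to the sum of each gate's read frequency times its gate number.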

Sequence	protein stability index (doa10∆)	protein stability index (pdr5∆)	protein stability index (san1∆)	protein stability index (ubr1∆)
TNEFVGSPSLTSPQYIP [NUT1]	2.85 ± 0.057	3.04 ± 0.043	3.06 ± 0.035	2.93 ± 0.032
RMLSSILDINVSSSKNK [SWP82]	2.71 ± 0.051	2.9 ± 0.051	2.49 ± 0.059	2.61 ± 0.032
GNDFKFNYQGDELVLNF [REC8]	3.34 ± 0.078	3.42 ± 0.083	3.34 ± 0.053	3.17 ± 0.047
DYVTNPDTKISSAAILG [RPN1]	2.42 ± 0.087	2.43 ± 0.1	2.21 ± 0.17	1.91 ± 0.1
FAIRDDRDHINPDDLMK [RPT4]	2.65 ± 0.15	2.99 ± 0.14	3.51 ± 0.093	3.33 ± 0.11
SALIENNLFRIIAELSF [YJL039C/NUP192]	2.22 ± 0.066	2.34 ± 0.056	2.04 ± 0.074	2.53 ± 0.052
CDVFWVQKDTAIIRLHP [POP1]	2.29 ± 0.079	2.62 ± 0.097	2.5 ± 0.095	2.58 ± 0.079
NKLTGKQIVFEIPSQTN [RPS7B]	2.79 ± 0.081	3.06 ± 0.13	2.88 ± 0.095	2.66 ± 0.086
AKIDVMLTIARLGFFYN [RPN7]	2.44 ± 0.15	2.89 ± 0.14	3.42 ± 0.14	3.14 ± 0.094
GGQIAHILFQNNPDMMI [ROX3]	2.54 ± 0.041	2.63 ± 0.046	2.59 ± 0.052	2.97 ± 0.046
RDHEKDTYRTLMEEIES [YIL149C/MLP2]	3.31 ± 0.044	3.38 ± 0.043	3.414 ± 0.031	3.26 ± 0.037
HKLDLAKRNLDANPSSQ [SMC2]	1.86 ± 0.052	2.24 ± 0.065	1.67 ± 0.091	1.66 ± 0.035
PMPIITFLSEWGMEPLE [RPB2]	2.7 ± 0.06	2.96 ± 0.09	2.51 ± 0.08	2.76 ± 0.071
SLNEKNALHTERLHELK [SMC1]	3.36 ± 0.061	3.11 ± 0.065	2.89 ± 0.067	2.81 ± 0.054
LVLNKSSIDRGFGRCET [RET1]	3.03 ± 0.28	3.11 ± 0.23	2.76 ± 0.12	
KRPRSRTLTAVHDKVLE [RPS7B]	3.36 ± 0.17	2.99 ± 0.13	3.02 ± 0.07	2.08 ± 0.24
TSTKPSFSFGAPESMKS [YOR098C/NUP1]	2.97 ± 0.053	3.07 ± 0.062	3.15 ± 0.043	3.1 ± 0.046
SWNLTGTILSSAGDDGK [YGL100W/SEH1]	1.37 ± 0.062	1.88 ± 0.068	3.03 ± 0.077	2.98 ± 0.084
KEGASTNWDDHAIIIFG [YMR153W/NUP53]	2.86 ± 0.094	3.05 ± 0.075	3.27 ± 0.095	2.59 ± 0.059
YLHNVELGEKKNEKLKF [ISW2]	2.84 ± 0.083	2.68 ± 0.094	2.89 ± 0.096	2.87 ± 0.1

Sequence	protein stability index (doa10∆)	protein stability index (pdr5∆)	protein stability index (san1∆)	protein stability index (ubr1∆)
FDRHCNMVLENVKELWT [SMD2]	2.37 ± 0.081	2.38 ± 0.088	1.84 ± 0.1	2.03 ± 0.1
IMATNRLDILDPALLRP [RPT6]	2.92 ± 0.1	3.13 ± 0.092	2.81 ± 0.065	3.25 ± 0.057
IRDSGDRIDLRYSKRAG [RPO21]	3.43 ± 0.18	3.34 ± 0.23	3.25 ± 0.12	3.27 ± 0.19
ENPTPEKGNAKMIDFAT [SIR3]	3.1 ± 0.11	2.99 ± 0.092	3.32 ± 0.072	3.03 ± 0.068
LVTQHKAKYNTPKYRLV [RPL5]	1.43 ± 0.052	1.94 ± 0.064	1.76 ± 0.095	1.87 ± 0.058
LKESYSQKHNGRILKWL [CDC53]	2.01 ± 0.059	2.69 ± 0.057	2.34 ± 0.055	2.14 ± 0.056
IRRLRVLRRLLAKYRDA [RPL19A]	1.19 ± 0.067	1.41 ± 0.058	1.34 ± 0.17	1.25 ± 0.057
NKLLGNVTIAQGGVLPN [HTA1]	1.82 ± 0.053	1.66 ± 0.041	1.72 ± 0.058	1.61 ± 0.033
NLSSLIVEINNVSNTFN [YJL041W/NSP1]	2.45 ± 0.043	2.72 ± 0.046	2.62 ± 0.04	2.58 ± 0.032
EVAQLGSLACDTADEAK [RPB4]	3.49 ± 0.15	3.28 ± 0.13	3.28 ± 0.17	2.73 ± 0.11
RNNVMLLIATNLKEYNK [SRB8]	2.44 ± 0.11	2.11 ± 0.099	2.74 ± 0.081	2.21 ± 0.072
RIHAKNFEAALFAKSSS [GAL11]	2.67 ± 0.086	2.54 ± 0.072	2.74 ± 0.099	2.56 ± 0.047
RNSKLLNTKSIQIDEET [MCD1]	3.21 ± 0.23	2.63 ± 0.084	3.18 ± 0.061	3.33 ± 0.12
VEKNEIGKMYDEYLGSH [NNF1]	3.38 ± 0.17	3.3 ± 0.15	3.28 ± 0.12	3.18 ± 0.086
IMDELLSSIAERVRNFA [DIB1]	1.9 ± 0.065	2.27 ± 0.086	2.06 ± 0.084	2.17 ± 0.082
DIGSDPTLPRSDRECPK [RPB9]	2.7 ± 0.069	2.94 ± 0.078	2.85 ± 0.076	3.14 ± 0.082
AMREVNDEKRVKEEYDI [YIL149C/MLP2]	2.62 ± 0.25	2.57 ± 0.17		
DNISSFHSAVENLVQGN [YCG1]	3.26 ± 0.08	3 ± 0.064	3.17 ± 0.067	3.31 ± 0.11
GELGEIRALQPKLKEGA [YIL149C/MLP2]	3.15 ± 0.11	3.34 ± 0.19	2.81 ± 0.15	3.36 ± 0.093
GDANNRWDKEEYQSLMS [SMC1]	3.36 ± 0.21	3.03 ± 0.29	3.05 ± 0.28	3.21 ± 0.073
